Read-outs that look alike come from different tables or passages of the source.
How the values were obtained:
[1] = target: H296-H296-H296-HT; experiment: ELISA; H296-H296-H296-HT coated at 5 ug/mL; HRP-labeled FNH3-8, ABTS; blank subtracted
[2] = target: H-296, a polypeptide comprising a heparin binding domain and a CS-1 domain of fibronectin (Homo sapiens (Human)) (UniProt P02751); experiment: ELISA; H-296 coated at 25 ug/mL in 0.2 M phosphate buffer pH 8.0; HRP-labeled FNH3-8, ABTS
[3] = target: H296-H296-HT; experiment: ELISA; H296-H296-HT coated at 4 ug/mL; HRP-labeled FNH3-8, ABTS; blank subtracted
Chain of H296-H296-HT (chain, as listed by the source limits assumed): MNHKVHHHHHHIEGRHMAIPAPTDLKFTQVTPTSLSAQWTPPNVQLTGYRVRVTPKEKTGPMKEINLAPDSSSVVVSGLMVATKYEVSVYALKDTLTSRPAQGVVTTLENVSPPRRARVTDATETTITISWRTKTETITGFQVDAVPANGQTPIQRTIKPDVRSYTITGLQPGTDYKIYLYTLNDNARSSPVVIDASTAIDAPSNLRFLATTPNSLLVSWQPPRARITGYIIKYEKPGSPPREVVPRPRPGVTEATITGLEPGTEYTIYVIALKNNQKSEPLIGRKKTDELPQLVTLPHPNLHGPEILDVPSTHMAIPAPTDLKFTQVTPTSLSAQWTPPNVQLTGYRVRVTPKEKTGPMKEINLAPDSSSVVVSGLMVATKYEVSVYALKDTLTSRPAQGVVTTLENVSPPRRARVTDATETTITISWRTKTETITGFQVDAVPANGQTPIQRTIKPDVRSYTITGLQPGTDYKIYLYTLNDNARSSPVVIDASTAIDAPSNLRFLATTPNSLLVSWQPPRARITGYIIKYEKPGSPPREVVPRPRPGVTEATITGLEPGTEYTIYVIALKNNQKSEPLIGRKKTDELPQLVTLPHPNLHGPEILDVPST

[4] = target: H-296, a polypeptide comprising a heparin binding domain and a CS-1 domain of fibronectin (Homo sapiens (Human)) (UniProt P02751); experiment: ELISA; H-296 coated at 25 ug/mL in 0.2 M acetate buffer pH 5.6; HRP-labeled FNH3-8, ABTS
[5] = target: H296-H271; experiment: ELISA; H296-H271 coated at 9 ug/mL; HRP-labeled FNH3-8, ABTS; blank subtracted
Chain of H296-H271 (chain, as listed by the source limits assumed): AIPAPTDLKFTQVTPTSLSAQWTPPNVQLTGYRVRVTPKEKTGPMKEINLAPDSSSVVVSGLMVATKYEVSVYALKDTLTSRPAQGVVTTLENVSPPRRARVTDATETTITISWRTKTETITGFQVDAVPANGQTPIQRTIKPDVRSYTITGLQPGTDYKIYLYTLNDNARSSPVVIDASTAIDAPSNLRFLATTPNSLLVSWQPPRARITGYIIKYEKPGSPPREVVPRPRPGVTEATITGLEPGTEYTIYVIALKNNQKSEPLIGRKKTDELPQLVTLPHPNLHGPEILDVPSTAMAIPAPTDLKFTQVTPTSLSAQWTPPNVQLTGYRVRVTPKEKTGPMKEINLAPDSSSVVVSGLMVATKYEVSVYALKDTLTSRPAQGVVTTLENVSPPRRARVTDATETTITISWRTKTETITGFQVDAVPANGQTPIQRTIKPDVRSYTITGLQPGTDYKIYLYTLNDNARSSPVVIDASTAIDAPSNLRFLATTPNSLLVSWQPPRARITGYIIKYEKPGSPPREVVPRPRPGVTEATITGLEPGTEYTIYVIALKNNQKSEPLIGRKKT

[6] = target: H-296, a polypeptide comprising a heparin binding domain and a CS-1 domain of fibronectin (Homo sapiens (Human)) (UniProt P02751); experiment: ELISA; H-296 coated at 50 ug/mL in 0.2 M acetate buffer pH 5.0; HRP-labeled FNH3-8, ABTS
[7] = target: H271-H296; experiment: ELISA; H271-H296 coated at 10 ug/mL; HRP-labeled FNH3-8, ABTS; blank subtracted
Chain of H271-H296 (chain, as listed by the source limits assumed): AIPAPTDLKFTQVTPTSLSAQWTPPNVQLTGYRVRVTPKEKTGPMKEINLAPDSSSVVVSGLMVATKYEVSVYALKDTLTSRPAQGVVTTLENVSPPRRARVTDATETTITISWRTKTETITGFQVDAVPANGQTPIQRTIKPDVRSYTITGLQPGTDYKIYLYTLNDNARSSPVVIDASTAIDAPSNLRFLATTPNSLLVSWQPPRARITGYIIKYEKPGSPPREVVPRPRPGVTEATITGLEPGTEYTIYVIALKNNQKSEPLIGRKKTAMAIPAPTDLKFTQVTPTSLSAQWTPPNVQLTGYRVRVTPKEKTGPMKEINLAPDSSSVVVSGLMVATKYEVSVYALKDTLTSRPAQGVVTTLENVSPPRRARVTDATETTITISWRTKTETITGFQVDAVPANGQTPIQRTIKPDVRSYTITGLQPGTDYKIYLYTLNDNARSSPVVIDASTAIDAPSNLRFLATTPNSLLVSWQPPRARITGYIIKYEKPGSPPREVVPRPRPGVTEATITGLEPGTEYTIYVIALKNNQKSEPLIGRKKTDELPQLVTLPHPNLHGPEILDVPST

[8] = target: H296-H296-H296-HT; experiment: ELISA; H296-H296-H296-HT coated at 2 ug/mL; HRP-labeled FNH3-8, ABTS; blank subtracted
[9] = target: H-296, a polypeptide comprising a heparin binding domain and a CS-1 domain of fibronectin (Homo sapiens (Human)) (UniProt P02751); experiment: ELISA; H-296 coated at 50 ug/mL in 0.2 M phosphate buffer pH 6.8; HRP-labeled FNH3-8, ABTS
[10] = target: H-296, a polypeptide comprising a heparin binding domain and a CS-1 domain of fibronectin (Homo sapiens (Human)) (UniProt P02751); experiment: ELISA as in Example 34; H-296 coated at 25 ug/mL in pH 5.6 acetate buffer; HRP-labeled FNH3-8
[11] = target: H-296, a polypeptide comprising a heparin binding domain and a CS-1 domain of fibronectin (Homo sapiens (Human)) (UniProt P02751); experiment: ELISA; H-296 coated at 50 ug/mL in 0.2 M acetate buffer pH 4.4; HRP-labeled FNH3-8, ABTS
[12] = target: H296-H296-H296-HT; experiment: ELISA; H296-H296-H296-HT coated at 25 ug/mL; HRP-labeled FNH3-8, ABTS; blank subtracted
[13] = target: H271-H296; experiment: ELISA; H271-H296 coated at 20 ug/mL; HRP-labeled FNH3-8, ABTS; blank subtracted
[14] = target: H296-H296-HT; experiment: ELISA; H296-H296-HT coated at 2 ug/mL; HRP-labeled FNH3-8, ABTS; blank subtracted
[15] = target: CH-296, a polypeptide comprising a cell binding domain, a heparin binding domain and a CS-1 domain of fibronectin (Homo sapiens (Human)) (UniProt P02751); experiment: ELISA; CH-296 coated at 25 ug/mL; HRP-labeled FNH3-8, ABTS; blank subtracted
[16] = target: H296-H296-HT; experiment: ELISA; H296-H296-HT coated at 1 ug/mL; HRP-labeled FNH3-8, ABTS; blank subtracted
[17] = target: H-296, a polypeptide comprising a heparin binding domain and a CS-1 domain of fibronectin (Homo sapiens (Human)) (UniProt P02751); experiment: ELISA as in Example 34; H-296 coated at 100 ug/mL in pH 5.6 acetate buffer; HRP-labeled FNH3-8
[18] = target: H296-H296 (modified fibronectin fragment in which two H-296's are connected); experiment: ELISA as in Example 34; H296-H296 coated at 1.563 ug/mL in PBS; HRP-labeled FNH3-8
[19] = target: H271-H296; experiment: ELISA; H271-H296 coated at 16 ug/mL; HRP-labeled FNH3-8, ABTS; blank subtracted
[20] = target: H271-H296; experiment: ELISA; H271-H296 coated at 18 ug/mL; HRP-labeled FNH3-8, ABTS; blank subtracted
[21] = target: CH-296, a polypeptide comprising a cell binding domain, a heparin binding domain and a CS-1 domain of fibronectin (Homo sapiens (Human)) (UniProt P02751); experiment: ELISA; CH-296 coated at 25 ug/mL; HRP-labeled FNH3-8, ABTS; blank subtracted; remark: listed apart in the source
[22] = target: H-296, a polypeptide comprising a heparin binding domain and a CS-1 domain of fibronectin (Homo sapiens (Human)) (UniProt P02751); experiment: ELISA as in Example 34; H-296 coated at 200 ug/mL in pH 5.6 acetate buffer; HRP-labeled FNH3-8
[23] = target: H-296, a polypeptide comprising a heparin binding domain and a CS-1 domain of fibronectin (Homo sapiens (Human)) (UniProt P02751); experiment: ELISA; H-296 coated at 25 ug/mL in 0.2 M acetate buffer pH 4.4; HRP-labeled FNH3-8, ABTS
[24] = target: H296-H296-H296-HT; experiment: ELISA; H296-H296-H296-HT coated at 3 ug/mL; HRP-labeled FNH3-8, ABTS; blank subtracted
[25] = target: H296-H296 (modified fibronectin fragment in which two H-296's are connected); experiment: ELISA as in Example 34; H296-H296 coated at 6.25 ug/mL in PBS; HRP-labeled FNH3-8
[26] = target: H296-H296-H296-HT; experiment: ELISA; H296-H296-H296-HT coated at 10 ug/mL; HRP-labeled FNH3-8, ABTS; blank subtracted
[27] = target: H271-H296; experiment: ELISA; H271-H296 coated at 14 ug/mL; HRP-labeled FNH3-8, ABTS; blank subtracted
[28] = target: H296-H271; experiment: ELISA; H296-H271 coated at 11 ug/mL; HRP-labeled FNH3-8, ABTS; blank subtracted

Chain of H296-H296-H296-HT (chain, as listed by the source limits assumed): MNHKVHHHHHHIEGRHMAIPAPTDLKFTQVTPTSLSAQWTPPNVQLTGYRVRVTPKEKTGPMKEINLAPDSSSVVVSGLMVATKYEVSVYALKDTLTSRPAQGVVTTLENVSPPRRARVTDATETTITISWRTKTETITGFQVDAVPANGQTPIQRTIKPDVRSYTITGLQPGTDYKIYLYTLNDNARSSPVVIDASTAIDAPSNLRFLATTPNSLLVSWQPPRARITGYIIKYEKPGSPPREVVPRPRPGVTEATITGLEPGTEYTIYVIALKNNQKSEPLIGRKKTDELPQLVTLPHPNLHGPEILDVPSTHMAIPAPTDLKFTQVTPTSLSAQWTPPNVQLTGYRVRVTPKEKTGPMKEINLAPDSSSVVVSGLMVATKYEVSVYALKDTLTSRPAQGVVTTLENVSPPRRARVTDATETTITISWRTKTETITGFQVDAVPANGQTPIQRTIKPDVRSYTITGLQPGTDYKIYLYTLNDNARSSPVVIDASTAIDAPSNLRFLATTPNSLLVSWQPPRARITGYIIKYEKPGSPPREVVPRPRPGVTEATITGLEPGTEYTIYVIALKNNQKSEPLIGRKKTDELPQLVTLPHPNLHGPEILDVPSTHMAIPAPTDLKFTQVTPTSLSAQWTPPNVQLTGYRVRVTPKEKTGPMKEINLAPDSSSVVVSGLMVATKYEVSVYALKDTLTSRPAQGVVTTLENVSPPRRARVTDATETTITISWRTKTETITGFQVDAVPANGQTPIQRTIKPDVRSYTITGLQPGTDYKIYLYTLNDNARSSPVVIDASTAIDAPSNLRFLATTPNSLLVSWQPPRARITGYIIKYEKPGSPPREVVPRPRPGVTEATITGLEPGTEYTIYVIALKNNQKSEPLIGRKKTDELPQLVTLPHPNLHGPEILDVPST

- 405 nm (Found Value - Blank) [1]: 0.87
- absorbance at 405 nm [2]: 0.104
- 405 nm (Found Value - Blank) [3]: 0.843
- absorbance at 405 nm [4]: 0.475
- 405 nm (Found Value - Blank) [5]: 0.56
- absorbance at 405 nm [6]: 0.451
- 405 nm (Found Value - Blank) [7]: 0.6
- 405 nm (Found Value - Blank) [8]: 0.545
- absorbance at 405 nm [9]: 0.167
- absorbance at 405 nm [10]: 0.224
- absorbance at 405 nm [11]: 0.379
- 405 nm (Found Value - Blank) [12]: 0.991
- 405 nm (Found Value - Blank) [13]: 0.603
- 405 nm (Found Value - Blank) [14]: 0.54
- 405 nm (Found Value - Blank) [15]: 0.859
- 405 nm (Found Value - Blank) [16]: 0.186
- absorbance at 405 nm [17]: 0.499
- absorbance at 405 nm [18]: 0.732
- 405 nm (Found Value - Blank) [19]: 0.594
- 405 nm (Found Value - Blank) [20]: 0.61
- 405 nm (Found Value - Blank) [21]: 0.564
- absorbance at 405 nm [22]: 0.964
- absorbance at 405 nm [23]: 0.428
- 405 nm (Found Value - Blank) [24]: 0.743
- absorbance at 405 nm [25]: 1.29
- 405 nm (Found Value - Blank) [26]: 0.924
- 405 nm (Found Value - Blank) [27]: 0.605
- 405 nm (Found Value - Blank) [28]: 0.561
Substance: FNH3-8 antibody (manufactured by TAKARA BIO INC.) labeled with HRP

From US20100255578A1
